Measurements published in the supplement of paper PMC10065799, “High-throughput profiling of sequence recognition by tyrosine kinases and SH2 domains using bacterial peptide display” (eLife, 2023).

Legend:
AncSZ = test: phosphorylation enrichment, bacterial display (enrichment ratio); higher = better substrate or ligand; peptides without Tyr show the background
EPHB1 = EPHB1 (UniProt P54762); test: as above
EPHB2 = EPHB2 (UniProt P29323); test: as above
FGFR1 = FGFR1 (UniProt P11362); test: as above
FGFR3 = FGFR3 (UniProt P22607); test: as above
FGFR3, sequence (P22607 whole entry, looked up): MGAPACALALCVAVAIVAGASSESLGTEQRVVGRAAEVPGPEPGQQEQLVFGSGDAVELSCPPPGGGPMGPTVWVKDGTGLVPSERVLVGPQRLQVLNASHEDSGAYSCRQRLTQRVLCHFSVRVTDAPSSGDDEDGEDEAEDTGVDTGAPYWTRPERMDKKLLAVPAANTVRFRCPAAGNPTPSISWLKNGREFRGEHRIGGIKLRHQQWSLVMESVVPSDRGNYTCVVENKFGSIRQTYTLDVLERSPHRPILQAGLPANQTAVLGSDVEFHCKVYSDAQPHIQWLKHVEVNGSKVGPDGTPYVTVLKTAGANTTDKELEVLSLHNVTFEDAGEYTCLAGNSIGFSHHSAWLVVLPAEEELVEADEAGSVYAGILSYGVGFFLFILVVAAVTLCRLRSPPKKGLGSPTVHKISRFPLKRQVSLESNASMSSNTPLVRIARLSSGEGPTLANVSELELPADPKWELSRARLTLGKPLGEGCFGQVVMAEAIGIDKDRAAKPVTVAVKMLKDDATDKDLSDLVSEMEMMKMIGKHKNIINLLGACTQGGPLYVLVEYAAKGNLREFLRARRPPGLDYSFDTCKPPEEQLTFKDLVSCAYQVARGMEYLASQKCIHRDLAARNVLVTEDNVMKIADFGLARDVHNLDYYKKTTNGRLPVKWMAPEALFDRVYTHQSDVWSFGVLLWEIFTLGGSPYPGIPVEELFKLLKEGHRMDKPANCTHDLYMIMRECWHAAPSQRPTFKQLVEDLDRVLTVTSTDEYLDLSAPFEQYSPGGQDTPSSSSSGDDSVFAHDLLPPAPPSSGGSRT

Fer (mouse) = test: as above
Fes = Fes (UniProt P07332); test: as above
Fyn = Fyn (UniProt P06241); test: as above
Fyn, sequence (P06241 whole entry, looked up): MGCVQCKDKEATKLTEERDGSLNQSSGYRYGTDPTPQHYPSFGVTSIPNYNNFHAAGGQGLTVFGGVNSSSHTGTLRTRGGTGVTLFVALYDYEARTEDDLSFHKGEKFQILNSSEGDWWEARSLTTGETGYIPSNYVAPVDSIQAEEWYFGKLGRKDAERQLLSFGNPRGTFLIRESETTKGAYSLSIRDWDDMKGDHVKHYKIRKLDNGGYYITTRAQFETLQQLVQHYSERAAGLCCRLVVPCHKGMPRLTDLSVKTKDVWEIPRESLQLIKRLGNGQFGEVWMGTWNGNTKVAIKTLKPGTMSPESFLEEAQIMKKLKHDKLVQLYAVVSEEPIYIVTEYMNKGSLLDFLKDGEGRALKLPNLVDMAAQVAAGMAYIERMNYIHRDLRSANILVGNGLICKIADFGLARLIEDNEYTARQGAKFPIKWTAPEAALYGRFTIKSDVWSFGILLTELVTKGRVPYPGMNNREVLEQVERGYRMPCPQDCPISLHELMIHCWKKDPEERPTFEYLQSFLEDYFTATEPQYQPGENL

Hck = Hck (UniProt P08631); test: as above
Hck, sequence (P08631 whole entry, looked up): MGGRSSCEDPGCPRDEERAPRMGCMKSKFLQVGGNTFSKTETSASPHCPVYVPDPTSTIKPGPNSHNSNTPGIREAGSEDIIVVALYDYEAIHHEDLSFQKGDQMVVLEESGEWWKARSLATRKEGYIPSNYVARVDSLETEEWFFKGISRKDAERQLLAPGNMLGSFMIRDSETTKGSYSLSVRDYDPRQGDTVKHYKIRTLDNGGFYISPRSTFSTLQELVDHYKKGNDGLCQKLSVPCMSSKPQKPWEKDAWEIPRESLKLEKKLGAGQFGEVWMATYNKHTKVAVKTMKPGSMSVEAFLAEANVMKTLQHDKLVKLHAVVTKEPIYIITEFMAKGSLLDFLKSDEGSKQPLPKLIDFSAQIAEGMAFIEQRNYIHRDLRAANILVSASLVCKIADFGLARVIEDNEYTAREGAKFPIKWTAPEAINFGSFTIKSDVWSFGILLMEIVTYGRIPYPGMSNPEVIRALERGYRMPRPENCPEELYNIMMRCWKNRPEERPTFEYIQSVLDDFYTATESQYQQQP

Jak2 = Jak2 (UniProt O60674); test: as above
Jak2, sequence (O60674 whole entry, looked up): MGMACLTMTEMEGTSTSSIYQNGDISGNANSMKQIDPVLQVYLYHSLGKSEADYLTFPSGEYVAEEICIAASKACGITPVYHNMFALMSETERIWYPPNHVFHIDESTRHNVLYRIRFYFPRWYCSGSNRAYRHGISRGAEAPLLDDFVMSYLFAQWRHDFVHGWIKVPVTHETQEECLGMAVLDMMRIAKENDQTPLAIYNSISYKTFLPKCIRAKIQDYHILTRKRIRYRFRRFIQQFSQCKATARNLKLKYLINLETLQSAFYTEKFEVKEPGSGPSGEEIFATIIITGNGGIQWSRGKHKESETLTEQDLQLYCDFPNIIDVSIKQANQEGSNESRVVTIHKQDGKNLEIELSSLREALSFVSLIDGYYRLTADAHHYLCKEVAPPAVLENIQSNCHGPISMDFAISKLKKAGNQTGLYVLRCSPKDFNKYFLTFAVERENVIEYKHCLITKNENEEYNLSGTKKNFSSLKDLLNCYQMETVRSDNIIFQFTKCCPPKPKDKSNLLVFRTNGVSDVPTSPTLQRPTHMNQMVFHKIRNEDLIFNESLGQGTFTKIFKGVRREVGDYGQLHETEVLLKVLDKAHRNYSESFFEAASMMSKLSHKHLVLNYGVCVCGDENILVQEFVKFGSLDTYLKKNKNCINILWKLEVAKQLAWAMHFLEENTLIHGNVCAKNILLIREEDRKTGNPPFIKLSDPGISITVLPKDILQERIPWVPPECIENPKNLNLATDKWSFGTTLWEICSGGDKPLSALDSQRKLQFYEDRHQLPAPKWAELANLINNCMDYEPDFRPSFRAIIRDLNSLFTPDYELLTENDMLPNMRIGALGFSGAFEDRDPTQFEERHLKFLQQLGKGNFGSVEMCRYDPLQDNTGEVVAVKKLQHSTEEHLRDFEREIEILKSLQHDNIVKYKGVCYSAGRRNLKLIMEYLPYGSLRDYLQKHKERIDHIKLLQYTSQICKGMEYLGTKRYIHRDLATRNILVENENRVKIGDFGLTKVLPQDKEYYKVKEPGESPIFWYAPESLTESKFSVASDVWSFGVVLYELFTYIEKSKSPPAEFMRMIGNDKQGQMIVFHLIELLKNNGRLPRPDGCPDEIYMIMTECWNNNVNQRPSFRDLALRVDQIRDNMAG

MERTK = MERTK (UniProt Q12866); test: as above
MERTK, sequence (Q12866 whole entry, looked up): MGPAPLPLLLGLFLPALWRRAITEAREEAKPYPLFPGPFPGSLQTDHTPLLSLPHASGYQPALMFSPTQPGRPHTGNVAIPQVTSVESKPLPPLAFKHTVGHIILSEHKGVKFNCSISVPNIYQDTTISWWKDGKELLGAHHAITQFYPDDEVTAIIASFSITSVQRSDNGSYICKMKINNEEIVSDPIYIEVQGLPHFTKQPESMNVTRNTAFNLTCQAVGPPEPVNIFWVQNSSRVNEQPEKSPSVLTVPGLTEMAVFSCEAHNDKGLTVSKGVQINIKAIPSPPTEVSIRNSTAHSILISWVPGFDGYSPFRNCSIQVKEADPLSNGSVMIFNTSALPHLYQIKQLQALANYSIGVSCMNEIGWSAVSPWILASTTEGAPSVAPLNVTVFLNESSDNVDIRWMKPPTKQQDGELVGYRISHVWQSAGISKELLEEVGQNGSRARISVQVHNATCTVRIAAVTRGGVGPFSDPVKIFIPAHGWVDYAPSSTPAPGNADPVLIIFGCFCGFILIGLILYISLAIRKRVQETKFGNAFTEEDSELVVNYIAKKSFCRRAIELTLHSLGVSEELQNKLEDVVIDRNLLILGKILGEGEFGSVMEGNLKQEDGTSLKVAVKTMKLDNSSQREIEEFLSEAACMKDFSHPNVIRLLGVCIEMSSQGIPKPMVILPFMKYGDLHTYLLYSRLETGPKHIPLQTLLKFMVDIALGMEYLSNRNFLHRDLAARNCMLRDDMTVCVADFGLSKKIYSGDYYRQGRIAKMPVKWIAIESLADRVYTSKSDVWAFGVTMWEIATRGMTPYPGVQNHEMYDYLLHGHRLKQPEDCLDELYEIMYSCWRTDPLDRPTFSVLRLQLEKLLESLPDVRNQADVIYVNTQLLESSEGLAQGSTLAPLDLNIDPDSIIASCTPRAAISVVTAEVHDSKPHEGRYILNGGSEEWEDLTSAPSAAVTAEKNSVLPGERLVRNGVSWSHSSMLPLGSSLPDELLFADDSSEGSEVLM

c-Abl (mouse) = test: as above
c-Src = test: as above
Grb2 SH2 = Grb2 SH2 (UniProt P62993); test: SH2 binding enrichment of the phosphorylated peptide, bacterial display (enrichment ratio); higher = better substrate or ligand; peptides without Tyr show the background
SHP2-C SH2 = test: as above
c-Src SH2 = test: as above
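For SH2 binding enrichment of the phosphorylated peptide, bacterial display in this document: peptide library displayed on the E. coli surface as eCPX fusions, selected cells deep-sequenced, score is each peptide's frequency after selection divided by its frequency in the input.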
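For phosphorylation enrichment, bacterial display in this document: 11-residue human phosphosite peptides and single-mutation variants displayed on the E. coli surface, counted by deep sequencing, each peptide's frequency after selection divided by its frequency in the unselected input library; frequency after pTyr selection over input frequency; kinase dosed for 20-30% of maximal phosphorylation in three min.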

EPHB1, sequence (P54762 whole entry, looked up): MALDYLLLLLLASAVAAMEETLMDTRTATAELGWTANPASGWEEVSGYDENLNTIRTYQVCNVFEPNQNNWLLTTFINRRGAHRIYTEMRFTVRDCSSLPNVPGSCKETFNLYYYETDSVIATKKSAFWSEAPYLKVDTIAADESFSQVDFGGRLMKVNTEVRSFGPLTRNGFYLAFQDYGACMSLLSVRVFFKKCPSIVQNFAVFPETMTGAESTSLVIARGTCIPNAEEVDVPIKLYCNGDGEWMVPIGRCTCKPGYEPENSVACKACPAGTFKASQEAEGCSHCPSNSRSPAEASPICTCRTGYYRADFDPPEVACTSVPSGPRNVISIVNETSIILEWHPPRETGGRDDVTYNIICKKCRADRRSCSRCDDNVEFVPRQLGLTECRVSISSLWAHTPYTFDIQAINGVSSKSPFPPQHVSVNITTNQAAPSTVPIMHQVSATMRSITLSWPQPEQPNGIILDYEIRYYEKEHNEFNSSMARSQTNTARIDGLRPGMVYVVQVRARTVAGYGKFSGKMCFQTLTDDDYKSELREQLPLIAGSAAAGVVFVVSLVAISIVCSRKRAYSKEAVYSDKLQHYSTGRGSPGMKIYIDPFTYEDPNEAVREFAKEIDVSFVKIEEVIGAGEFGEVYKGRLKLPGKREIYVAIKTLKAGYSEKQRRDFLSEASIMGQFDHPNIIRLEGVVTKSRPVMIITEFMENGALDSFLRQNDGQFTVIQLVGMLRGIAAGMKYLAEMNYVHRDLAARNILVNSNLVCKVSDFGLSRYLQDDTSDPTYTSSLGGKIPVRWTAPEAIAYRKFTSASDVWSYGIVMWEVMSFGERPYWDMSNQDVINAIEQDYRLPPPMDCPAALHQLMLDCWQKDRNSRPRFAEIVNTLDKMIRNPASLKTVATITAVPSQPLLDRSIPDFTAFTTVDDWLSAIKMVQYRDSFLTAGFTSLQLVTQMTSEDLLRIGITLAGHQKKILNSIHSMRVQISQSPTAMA

| SH2 binding enrichment (Grb2 SH2) | SH2 binding enrichment (SHP2-C SH2) | SH2 binding enrichment (c-Src SH2) | Sequence | phosphorylation enrichment (AncSZ) | phosphorylation enrichment (EPHB1) | phosphorylation enrichment (EPHB2) | phosphorylation enrichment (FGFR1) | phosphorylation enrichment (FGFR3) | phosphorylation enrichment (Fer (mouse)) | phosphorylation enrichment (Fes) | phosphorylation enrichment (Fyn) | phosphorylation enrichment (Hck) | phosphorylation enrichment (Jak2) | phosphorylation enrichment (MERTK) | phosphorylation enrichment (c-Abl (mouse)) | phosphorylation enrichment (c-Src) |
| --- | --- | --- | --- | --- | --- | --- | --- | --- | --- | --- | --- | --- | --- | --- | --- | --- |
| 0.794 | 0.765 | 0.886 | DDSSAYRSVDE [BCKDHA_Y345] | 1.16 | 0.671 | 0.528 | 0.569 | 0.707 | 0.721 | 1.29 | 0.547 | 0.553 | 1.12 | 0.485 | 1.01 | 0.568 |
| 0.886 | 0.645 | 3.2 | IVAREYYSEAD [CAMK2A_Y106] | 1.03 | 0.557 | 0.552 | 0.618 | 0.81 | 0.586 | 1.2 | 0.474 | 0.557 | 1.01 | 0.455 | 0.664 | 0.548 |
| 0.856 | 0.679 | 0.676 | SILTVYSKDNY [PANK2_Y400_A398T] | 0.678 | 0.535 | 0.407 | 0.452 | 0.594 | 0.388 | 0.91 | 0.442 | 0.449 | 0.715 | 0.383 | 0.639 | 0.538 |
| 0.69 | 0.531 | 0.413 | TFGQVYKGPHV [TNIK_Y40_R43P_YF] | 0.59 | 0.403 | 0.454 | 0.47 | 0.426 | 0.466 | 0.751 | 0.493 | 0.448 | 0.608 | 0.381 | 0.537 | 0.433 |
| 1.64 | 1.36 | 1.53 | TYVVLYDAELT [ERCC4_Y581_R576T] | 1.37 | 4.46 | 2.67 | 1.79 | 1.52 | 0.515 | 1.16 | 0.87 | 0.891 | 1.05 | 2.56 | 0.67 | 0.795 |
| 1.01 | 0.748 | 0.908 | CVGGFYGGCNE [CTSC_Y352_Y347C] | 0.81 | 0.548 | 0.625 | 0.439 | 0.653 | 0.566 | 0.854 | 0.678 | 0.838 | 0.636 | 0.585 | 0.471 | 1.88 |
| 0.575 | 0.677 | 0.375 | GNKENYGLPQP [BUB1_Y538] | 0.634 | 0.489 | 0.533 | 0.372 | 0.609 | 0.353 | 0.69 | 0.321 | 0.342 | 0.532 | 0.341 | 1.26 | 0.392 |
| 0.636 | 0.284 | 0.495 | RFLRGYRQHAF [HLA-A_Y137_D140H_YF] | 0.606 | 0.64 | 0.599 | 0.564 | 0.701 | 0.598 | 1.34 | 0.648 | 0.581 | 0.933 | 0.706 | 1.02 | 0.805 |
| 1.4 | 1.79 | 13.7 | TAPYNYSYIFK [RAB14_Y8] | 1.03 | 9.69 | 3.26 | 1.74 | 1.21 | 1.59 | 0.735 | 0.354 | 1.14 | 0.561 | 6.78 | 0.717 | 0.772 |
| 0.92 | 0.97 | 0.507 | RDIHDYIKHLG [UNC13C_Y308] | 0.9 | 0.597 | 0.985 | 0.449 | 0.474 | 0.582 | 0.696 | 0.576 | 0.519 | 0.614 | 0.46 | 0.373 | 0.487 |
| 1.05 | 0.709 | 0.399 | RKGIRYLTSGL [PIGA_Y82] | 0.698 | 0.533 | 0.437 | 0.47 | 0.688 | 0.368 | 0.668 | 0.434 | 0.645 | 0.657 | 0.57 | 0.438 | 0.648 |
| 1.02 | 1.21 | 0.654 | QMVGKYASSYM [AVPR2_Y124_M123K] | 0.626 | 0.336 | 0.401 | 0.29 | 0.452 | 0.266 | 0.736 | 0.529 | 0.379 | 0.717 | 0.475 | 0.786 | 0.459 |
| 1.23 | 1.16 | 0.695 | IMICAYLLHRG [PTEN_Y138_V133I] | 1.3 | 0.617 | 0.687 | 0.534 | 0.77 | 0.827 | 1.35 | 0.709 | 0.525 | 1.23 | 0.536 | 1.19 | 0.566 |
| 1.21 | 1.51 | 1.71 | MSSLPYMKMIF [SLC4A11_Y853] | 0.946 | 0.474 | 0.541 | 0.753 | 0.706 | 1.05 | 1.03 | 0.421 | 0.692 | 1.65 | 0.566 | 0.732 | 0.813 |
| 0.704 | 2.29 | 3.86 | SFHCSYSEIKD [DCLRE1C_Y322_S320C] | 1.06 | 0.599 | 0.59 | 0.558 | 0.811 | 0.639 | 1.21 | 0.585 | 0.568 | 0.9 | 0.497 | 0.873 | 0.647 |
| 1.28 | 0.952 | 0.972 | QLFGAYLRIHA [BSCL2_Y213_YF] | 1.49 | 1.17 | 0.915 | 0.928 | 2.28 | 0.837 | 2.12 | 0.784 | 1.02 | 1.37 | 0.599 | 0.744 | 0.559 |
| 0.927 | 0.806 | 0.401 | GNHISYFQSDG [CACNA1C_Y1757_V1755I_YF] | 0.742 | 0.552 | 0.44 | 0.483 | 0.496 | 0.39 | 0.918 | 0.418 | 0.392 | 0.566 | 0.376 | 0.511 | 0.395 |

| SH2 binding enrichment (Grb2 SH2) | SH2 binding enrichment (SHP2-C SH2) | SH2 binding enrichment (c-Src SH2) | Sequence | phosphorylation enrichment (AncSZ) | phosphorylation enrichment (EPHB1) | phosphorylation enrichment (EPHB2) | phosphorylation enrichment (FGFR1) | phosphorylation enrichment (FGFR3) | phosphorylation enrichment (Fer (mouse)) | phosphorylation enrichment (Fes) | phosphorylation enrichment (Fyn) | phosphorylation enrichment (Hck) | phosphorylation enrichment (Jak2) | phosphorylation enrichment (MERTK) | phosphorylation enrichment (c-Abl (mouse)) | phosphorylation enrichment (c-Src) |
| --- | --- | --- | --- | --- | --- | --- | --- | --- | --- | --- | --- | --- | --- | --- | --- | --- |
| 0.811 | 0.472 | 0.39 | PECEWYKNGVK [TTN_Y2112] | 1.55 | 0.759 | 1.05 | 0.821 | 1.19 | 0.719 | 1.96 | 0.692 | 0.73 | 1.32 | 0.532 | 1.31 | 0.555 |
| 1.25 | 1 | 0.845 | ARMTNCGLPRY [TSPAN12_Y138_Y138C] | 0.588 | 0.487 | 0.365 | 0.446 | 0.487 | 0.335 | 0.602 | 0.394 | 0.453 | 0.519 | 0.354 | 0.575 | 0.456 |
| 1.09 | 0.568 | 0.503 | LIYTNYEAGKD [GSTP1_Y112] | 1.23 | 6.63 | 8.11 | 1.78 | 1.64 | 5.02 | 1.01 | 7.8 | 5.36 | 0.88 | 7.41 | 7.84 | 7.03 |
| 0.894 | 0.747 | 0.538 | TKQLTYEEQYL [PIK3C3_Y310_D314Y] | 0.95 | 0.551 | 0.603 | 0.434 | 0.766 | 0.965 | 1.18 | 0.45 | 0.524 | 1.37 | 0.593 | 0.825 | 0.732 |
| 0.771 | 0.568 | 0.541 | RPSRWYQFRVA [ANOS1_Y259] | 1.22 | 0.834 | 0.717 | 0.748 | 0.887 | 1.03 | 1.55 | 1.01 | 0.642 | 0.894 | 0.699 | 0.955 | 0.756 |
| 0.787 | 0.739 | 0.692 | NPETCYQRLKK [TK2_Y190] | 1.03 | 0.527 | 0.603 | 0.481 | 0.545 | 0.432 | 1.03 | 0.412 | 0.736 | 0.966 | 0.469 | 0.839 | 0.483 |
| 0.588 | 0.835 | 0.249 | PQGVGYPQQQQ [EP300_Y2219_P2221Q] | 0.87 | 0.591 | 0.435 | 0.448 | 0.604 | 0.441 | 0.921 | 0.608 | 0.546 | 0.713 | 0.4 | 0.599 | 0.475 |
| 1.14 | 0.698 | 0.561 | HELFVYKCDEN [DOCK3_Y548_YF] | 2.31 | 1.13 | 1.13 | 0.995 | 1.53 | 1.15 | 2.21 | 1.54 | 1.19 | 1.95 | 0.76 | 1.5 | 1.18 |
| 1.04 | 0.888 | 0.721 | HEKKAYAFCGT [RPS6KA3_Y226_S227A] | 0.654 | 0.561 | 0.46 | 0.751 | 0.581 | 0.46 | 0.887 | 0.54 | 0.63 | 0.516 | 0.458 | 0.649 | 0.498 |
| 0.978 | 0.679 | 0.59 | QYNIQYSSSAA [ERBB2IP_Y981] | 0.913 | 0.335 | 0.583 | 0.693 | 0.648 | 0.606 | 0.964 | 0.702 | 0.47 | 0.68 | 0.452 | 0.408 | 0.749 |
| 0.766 | 1.03 | 1.34 | QLAPQYTYTQG [FLNA_Y1761_A1764T] | 0.828 | 0.436 | 0.413 | 0.411 | 0.768 | 0.517 | 0.766 | 0.422 | 0.533 | 0.611 | 1.17 | 0.36 | 0.526 |
| 0.852 | 0.76 | 0.546 | SYPREYGSQEG [RBM10_Y48] | 0.756 | 0.515 | 0.487 | 0.47 | 0.519 | 0.414 | 0.826 | 0.424 | 0.477 | 0.673 | 0.409 | 0.586 | 0.413 |
| 0.688 | 0.498 | 0.65 | EMQAAYQKVVA [HBD_Y131_Q126E] | 0.614 | 0.393 | 0.42 | 0.405 | 0.574 | 0.446 | 0.656 | 0.472 | 0.535 | 0.581 | 0.399 | 0.421 | 0.391 |
| 0.88 | 0.594 | 0.896 | RGDCTYAPLLG [AR_Y269_M268T] | 1.21 | 8.38 | 9.28 | 1.42 | 1.26 | 1.33 | 1.46 | 8.94 | 9.33 | 1.18 | 7.45 | 2.55 | 6.35 |
| 0.846 | 1.17 | 0.539 | AAVDEYLEYRR [FAM221A_Y17] | 1.1 | 0.531 | 0.477 | 0.513 | 0.522 | 0.401 | 1 | 0.62 | 0.863 | 1.21 | 0.469 | 0.698 | 0.925 |
| 0.709 | 0.837 | 1.4 | KSLSQYLEMDK [CAGE1_Y438_V435L] | 0.793 | 0.382 | 0.483 | 0.545 | 0.487 | 0.348 | 0.836 | 0.445 | 0.415 | 0.797 | 0.446 | 0.56 | 0.4 |
